Data: paper PMC8997907, “A Novel Role for Plasminogen Activator Inhibitor Type-2 as a Hypochlorite-Resistant Serine Protease Inhibitor and Holdase Chaperone” (Cells, 2022)

B1: Hypochlorite-treated glycosylated PAI-2 (PAI-2^G pre-treated with NaOCl) (natural protein, human, UniProt P05120 1-415, looked up)
chain: MEDLCVANTLFALNLFKHLAKASPTQNLFLSPWSISSTMAMVYMGSRGSTEDQMAKVLQFNEVGANAVTPMTPENFTSCGFMQQIQKGSYPDAILQAQAADKIHSSFRSLSSAINASTGNYLLESVNKLFGEKSASFREEYIRLCQKYYSSEPQAVDFLECAEEARKKINSWVKTQTKGKIPNLLPEGSVDGDTRMVLVNAVYFKGKWKTPFEKKLNGLYPFRVNSAQRTPVQMMYLREKLNIGYIEDLKAQILELPYAGDVSMFLLLPDEIADVSTGLELLESEITYDKLNKWTSKDKMAEDEVEVYIPQFKLEEHYELRSILRSMGMEDAFNKGRANFSGMSERNDLFLSEVFHQAMVDVNEEGTEAAAGTGGVMTGRTGHGGPQFVADHPFLFLIMHKITNCILFFGRFSSP
modifications: glycosylated; hypochlorite-modified: dityrosine cross-linkages, reactive thiols (cysteines) reduced by 62 ± 27% at 200 µM NaOCl; positions not given
notes: m1 after treatment with NaOCl; the dose differs between experiments (0-200 µM); also called hypochlorite-treated PAI-2^G; PAI-2^G OX200; source: bought: Biotech Australia (produced in CHO cells); incubated 2 h at 24 °C with up to 200 µM NaOCl, dialysed
B2: Hypochlorite-treated non-glycosylated PAI-2 (PAI-2^NG pre-treated with NaOCl) (natural protein, human, UniProt P05120 1-415, looked up)
chain: B1 chain
modifications: hypochlorite-modified: dityrosine cross-linkages, reactive thiols (cysteines) reduced by 75 ± 18% at 200 µM NaOCl; positions not given
notes: m2 after treatment with NaOCl; the dose differs between experiments (0-200 µM); also called hypochlorite-treated PAI-2^NG; PAI-2^NG OX200; source: bought: Biotech Australia (produced in E. coli); incubated 2 h at 24 °C with up to 200 µM NaOCl, dialysed

Molecular target: the molecule itself
Assay: native gel or EMSA; samples at the end of ThT assays (Aβ1-42 3 µM with PAI-2 pre-treated with 0-200 µM NaOCl, PBS, 28 °C) centrifuged at 24,000 x g, supernatant on 8% native PAGE, Western blot with anti-Aβ (W0-2) or anti-PAI-2

Protein	binding result
B1	binds
B2	binds
